Measurements: patent publication US20220002363A1, “COMPOSITIONS AND METHODS FOR TREATING PULMONARY DISEASE” (United States Government As Represented By The Department …, priority 2020, published 2022)
Entries after “also recorded” stand apart in the source; their conditions may differ.

Columns and labels:
recombinant human Fas = target: T1, recombinant human Fas (Homo sapiens, UniProt P25445); assay: Competition assay: binding of biotinylated WT sFasL to plate-coated recombinant human Fas; settings: biotinylated WT-sFasL 70 ng/mL, Fas coated at 250 ng/mL, serial 3-fold dilutions
T1 construct: recombinant human soluble Fas receptors (PeproTech, Rocky Hill, N.J.); purchased PeproTech
T1 sequence (P25445 26-173 limits assumed): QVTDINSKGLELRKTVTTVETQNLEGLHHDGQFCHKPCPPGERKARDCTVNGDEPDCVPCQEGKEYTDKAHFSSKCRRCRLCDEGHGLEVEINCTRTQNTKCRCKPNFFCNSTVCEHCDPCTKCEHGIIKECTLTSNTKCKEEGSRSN
Procedure: (§1) The mixtures were incubated for 2 hours in 96-well plates pre-coated with recombinant hsFas (250 ng/ml). After washing unbound material, biotin was detected using HRP conjugated Streptavidin. […] The sFasL bound to Fas was detected using polyclonal anti-human FasL antibodies. […] Different molar ratios of the Fas-activating antibody CH-11 and mut-sFasL were added, and caspase 3/7 activity measured after 5 hours. […] Data represent the results from three separate experiments, each done in duplicate, and were analyzed by 2-way ANOVA with Sidak's post hoc analysis. […] Each dot represents individual data; lines represent means±SD. *=P<0.05; **=P<0.01, ***P<0.001.
(§2) Antibodies and Reagents. […] FLAG tagged mut-sFasL was detected using HRP anti-FLAG monoclonal antibody (Sigma-Aldrich, Cat #A85920). […]
WT-sFasL inhibition occurs prior to receptor binding. […] Recombinant human Fas at 250 ng/mL were coated and the binding of a fixed concentration of biotinylated WT-sFasL (70 ng/mL) were measured in the presence of serial 3-fold dilutions of either WT-sFasL or mut-sFasL. […] Serial dilutions of either WT-sFasL or mut-sFasL were incubated in wells coated with recombinant human Fas, 5 μg/mL, and after washing, detected sFasL bound to Fas using polyclonal anti-FasL antibodies. […]

Fas = target: T2, Fas (Homo sapiens, UniProt P25445); assay: Caspase 3/7 activity in Jurkat cells with Fas-activating antibody CH-11 and mut-sFasL at different molar ratios; format: cell-based; settings: 5-hour incubation
T2 construct: host or cells: Jurkat (human leukemic T lymphocytes)
T2 sequence (P25445 26-335): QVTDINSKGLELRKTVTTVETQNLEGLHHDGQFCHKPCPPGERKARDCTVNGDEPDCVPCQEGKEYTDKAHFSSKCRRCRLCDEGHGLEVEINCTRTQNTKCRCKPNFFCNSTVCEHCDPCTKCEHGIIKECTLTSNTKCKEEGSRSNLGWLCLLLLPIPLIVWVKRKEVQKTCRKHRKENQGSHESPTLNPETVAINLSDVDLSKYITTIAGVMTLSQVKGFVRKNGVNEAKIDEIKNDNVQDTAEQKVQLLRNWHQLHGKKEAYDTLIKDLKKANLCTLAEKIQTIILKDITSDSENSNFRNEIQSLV
Procedure: as §1, §2
Measurements of apoptotic cascade activation. Apoptotic cascade activation was assessed by determining caspase 3/7 activity and Annexin V externalization. Caspase-3/7 activity was measured using a commercial substrate (Caspase-Glo 3/7 Assay, Promega, Madison, Wis., Cat #G8090) following manufacturer's instructions. Annexin V was measured with a luminescent commercial assay that allows for measurement of annexin V externalization in adherent cells (RealTime-Glo Annexin V assay, Promega, Madison, Wis., Cat #JA1011). Luminescence was measured with a Synergy H4 Microplate Reader (BioTek, Winooski, Vt.). […]

effect on CH11 activity at very high molar ratios (Fas): increased CH11 activity
B1: mut-sFasL: mutant sFasL molecule in which 8 charged amino acids in the 26 amino acid stalk region were changed to alanine (protein)
chain: QLFALQAALAALAASTSQMATASSLAKQIGHPSPPPEKKELRKVAHLTGKSNSRSMPLEWEDTYGIVLLSGVKYKKGGLVINETGLYFVYSKVYFRGQSCNNLPLSHKVYMRNSKYPQDLVMMEGKMMSYCTTGQMWARSSYLGAVFNLTSADHLYVNVSELSLVNFEESQTFFGLYKL
effect of increasing competitor concentration on binding of biotinylated WT-sFasL to Fas (recombinant human Fas): little effect on binding of biotinylated WT-sFasL, except at very high doses
effect on caspase 3/7 activation induced by CH11 (Fas; different molar ratios of mut-sFasL and antibody): did not attenuate the caspase 3/7 activation induced by CH11; also recorded: did not inhibit the activity of CH11
